# Measurements: patent US20150140018A1 (MEDICAL AND BIOLOGICAL LABORATORIES, published 2015)
# T1: CXADR protein on human prostate cancer cells (LNCaP-CR, DU-145) (human, UniProt P78310 20-365)
# T1 construct: whole, on cells; Endogenous CXADR; also called coxsackievirus and adenovirus receptor; CAR
# T1 sequence (looked up): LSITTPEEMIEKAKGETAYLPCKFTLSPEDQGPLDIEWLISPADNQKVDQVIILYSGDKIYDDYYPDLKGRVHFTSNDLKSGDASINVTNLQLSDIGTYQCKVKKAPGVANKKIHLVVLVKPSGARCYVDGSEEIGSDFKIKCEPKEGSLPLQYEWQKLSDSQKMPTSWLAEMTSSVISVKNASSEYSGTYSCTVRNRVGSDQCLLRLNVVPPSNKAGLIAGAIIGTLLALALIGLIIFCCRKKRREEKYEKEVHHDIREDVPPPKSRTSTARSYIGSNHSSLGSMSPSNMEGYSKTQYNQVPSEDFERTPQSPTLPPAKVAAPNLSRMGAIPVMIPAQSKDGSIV
# B1: anti-CXADR antibody 7F8A (antibody, V domains shown)
# VH: DVQLQESGPGLVKPSQTVSLTCTVTGYSITNGNHWWNWIRQVSGSKLEWIGYINSSGSTDSNPSLKSRISITRDTSKNQLFLQLNSVTIEDIATYYCARDDYYFDYWGQGTTLTVSS
# VL: DIQMTQSPASLSASVGETVTITCRASENIDSYLAWYQQKQGKSPQLLVYAATLLADGVPSRFSGSGSGTQYSLKINSLQSEDVARYYCQHYYSTPLTFGAGTKLELKR
# notes: also called 7F8A clone
# Molecular target: T1, CXADR protein on human prostate cancer …
# Experiment: flow cytometry, purified antibody at 5 ug/mL on LNCaP-CR and DU-145 cells that express CXADR
binder,measurement,value
B1,binding result,binds
